Experimental data as given in article PMC8349882 (Molecular cell, 2021).

Biological target: the molecule itself
Assay: crystal structure

B1: GLR3.4-S1S2 (isolated ligand-binding domain of GLR3.4) (domain or fragment, Arabidopsis thaliana)
chain: KPLRIGVPNRVSYTDYVSKDKNPPGVRGYCIDVFEAAIELLPYPVPRTYILYGDGKRNPSYDNLVNEVVADNFDVAVGDITIVTNRTRYVDFTQPFIESGLVVVAPVKEAGTIEGIDSLVTSNEPIGVQDGTFARNYLINELNILPSRIVPLKDEEQYLSALQRGPNAGGVAAIVDELPYIEVLLTNSNCKFRTVGQEFTRTGWGFAFQRDSPLAVDMSTAILQLSEEGELEKIHRKWLNYKHECS
In the case of B1, the “stoichiometry N” value is reported as 2.
